Data published in patent publication US20100167997A1, “METHOD FOR STIMULATION COLLAGEN SYNTHESIS AND/OR KGF EXPRESSION” (ATYR PHARMA, INC., priority 2005, published 2010).

Legend:
collagen [1] = assay: RT-PCR analysis of collagen transcript in foreskin fibroblast cells; assay type: cell-based; conditions: for collagen synthesis (RT-PCR), deletion fragments, compared with C-terminal fragment SEQ ID NO: 15: 100 nM for 2 hours and 6 hours, FIG. 6; for synthesis of collagen (RT-PCR), AIMP1 fragments: 100 nM, 0, 1, 2, 4 and 6 hours, FIG. 5
Procedure: (§1) In order to measure the collagen transcript RNA induced by the AIMP1, foreskin fibroblast cells (5×10^4 cells/well; obtained from MTT; accession number: MC1232) were cultured in 10% serum-containing DMEM medium on a 6-well plate for 12 hours and then cultured in serum-free medium for about 3 hours. Next, the cultured cells were treated with the AIMP1 (SEQ ID NO: 1) at varying AIMP1 concentrations of 0, 20, 50, 100 and 200 nM for 6 hours (RT-PCR) or 12 hours (Western blot).
The cells treated with the AIMP1 at varying concentrations in Example <1-1> were collected and dissolved in TRIzol (invitrogen). 10% by weight of chloroform was added to the cell lysate, and mixed well. The mixture was centrifuged at 12,000 g for 15 minutes and the supernatant was collected. Ethanol was added to the collected supernatant to a final concentration of 70%. Then, the supernant was centrifuged at 26,000 g for 5 minutes and the precipitant was collected. The precipitant was dried and dissolved in sterilized distilled water, and the total RNA was extracted. 3 μg of the total RNA was used to prepare cDNA. Then, the cDNA was amplified by PCR using collagen-specific primers (SEQ ID NO: 4 and SEQ ID NO: 5). At this time, for use as a control group, the cDNA was subjected to PCR using GADPH-specific primers (SEQ ID NO: 6 and SEQ ID NO: 7). The PCR reaction consisted of: pre-denaturation of the template DNA at 95° C. for 5 min, followed by 25 cycles of 1 min at 95° C., 1 min at 52° C. and 1 min at 72° C., and then a final extension for 5 min at 72° C.
(§2) Foreskin fibroblast cells (5×10^4 cells/well) were cultured in 10% serum-containing DMEM medium on a 6-well plate for 12 hours, and then, cultured in serum-free medium for about 3 hours. Next, the cultured cells were treated with 100 nM of the AIMP1 at various time intervals (0, 2, 4, 6, 12 and 24 hours).
(§3) Foreskin fibroblast cells (5×10^4 cells/well) were cultured in 10% serum-containing DMEM medium on a 6-well plate about 12 hours, and then, cultured in serum-free medium for about 3 hours. Then, the cultured cells were treated with 100 nM of the N-terminal and C-terminal fragments of the AIMP1 prepared in Reference Example 1, at various time intervals of 0, 1, 2, 4, and 6 hours. Then, RT-PCR was performed in the same manner as in Example <1-2> using each of collagen-specific primers (SEQ ID NO: 4 and SEQ ID NO: 5), KGF-specific primers (SEQ ID NO: 8 and SEQ ID NO: 9) and GADPH-specific primers (SEQ ID NO: 6 and SEQ ID NO: 7).
(§4) Foreskin fibroblast cells (5×10^4 cells/well) were cultured in 10% serum-containing DMEM medium on a 6-well plate for 12 hours and then cultured in serum-free medium for about 3 hours. Next, the cultured cells were treated with each of the N-terminal fragments (SEQ ID NOS: 12, 13 and 14) and C-terminal fragment (SEQ ID NO: 15) of AIMP1 prepared in Reference Example 2 at an concentration of 100 nM for 2 hours and 6 hours, respectively. The treated cells were subjected to RT-PCR using collagen-specific primers (SEQ ID NOS: 4 and 5), KGF-specific primers (SEQ ID NOS: 8 and 9) and GADPH-specific primers (SEQ ID NOS: 6 and 7) in the same manner as in Example <1-2>.

KGF [2] = assay: RT-PCR analysis of KGF expression in foreskin fibroblast cells; assay type: cell-based; conditions: for KGF synthesis (RT-PCR), deletion fragments, compared with C-terminal fragment SEQ ID NO: 15: 100 nM for 2 hours and 6 hours, FIG. 6; for synthesis of KGF (RT-PCR), AIMP1 fragments: 100 nM, 0, 1, 2, 4 and 6 hours, FIG. 5
Procedure: From foreskin fibroblast cells treated with 100 nM of the AIMP1 for 2 hours, the total RNA was extracted in the same manner as described in Example <1-2>. Then, the extract was amplified by RT-PCR using KGF-specific primers (SEQ ID NO: 8 and SEQ ID NO: 9). The control groups were amplified using cyclin D-specific primers (SEQ ID NO: 10 and SEQ ID NO: 11) and GADPH-specific primers (SEQ ID NO: 6 and SEQ ID NO: 7), respectively. The PCR reaction consisted of: predenaturation of the template DNA at 95° C. for 5 min, followed by 25 cycles of 1 min at 95° C., 1 min at 52° C. and 1 min at 72° C., and then, a final extension for 5 min at 72° C.
as §3, §4

collagen [3] = assay: Western blot analysis of collagen (anti-collagen I antibody) in foreskin fibroblast cells; assay type: cell-based; conditions: 200 nM for 12 hours, FIG. 7
Procedure: as §1
The cells treated with the AIMP1 at varying AIMP1 concentrations in Example <1-1> were collected and lysed in a cell lysis buffer (50 mM HEPES, pH 7.5, 150 mM NaCl, 10% glycerol, 5 mM EGTA, 1 mM sodium orthovanadate, 10 mM NaF, 12 mM b-glycerophosphate, 1 mM DTT, 1 mM PMSF, […] aprotinin, and 1% NP40). Lysed cells were centrifuged at 26,000 g for 15 minutes and the cell extract was isolated. 30 μg of the cell extract was separated by 8% SDS-PAGE and immunoblotted with an anti-collagen I antibody (Abcam) according to any conventional method known in the art. As a control group, an anti-tubulin antibody (Sigma) was used.
as §2
Foreskin fibroblast cells (5×10^5 cells/well) were cultured in 10% serum-containing DMEM medium on a 6-well plate for 48 hours and then cultured in serum-free medium for about 3 hours. Next, the cultured cells were treated with each of the AIMP1 (SEQ ID NO: 1) and the AIMP1 N-terminal fragments (SEQ ID NOS: 2 and 12) at a concentration of 200 nM for 12 hours. As a control group, cells without treatment were used.
The cells treated with each of the AIMP1 and its N-terminal fragments and the control cells were collected at the indicated time and subjected to Western blot analysis in the same manner as in Example <1-3>.

collagen [4] = assay: Activity to stimulate collagen synthesis (data not shown)
KGF [5] = assay: Activity to stimulate KGF expression (data not shown)

SEQ ID NO: 13: N-terminal deletion fragment of AIMP1, amino acids 1-46 (MANNDAVLKRLEQKGAEADQIIEYLKQQVSLLKEKAILQATLREEK; PEPTIDE (1)..(46) AIMP1-(1-46); listed as Homo sapiens)
collagen synthesis (RT-PCR), deletion fragments, compared with C-terminal fragment SEQ ID NO: 15 (collagen [1]): more stimulated | KGF synthesis (RT-PCR), deletion fragments, compared with C-terminal fragment SEQ ID NO: 15 (KGF [2]): more stimulated

SEQ ID NO: 12: N-terminal deletion fragment of AIMP1, amino acids 6-46 (AVLKRLEQKGAEADQIIEYLKQQVSLLKEKAILQATLREEK; PEPTIDE (1)..(41) AIMP1-(6-46); listed as Homo sapiens)
collagen synthesis (RT-PCR), deletion fragments, compared with C-terminal fragment SEQ ID NO: 15 (collagen [1]): more stimulated | synthesis of collagen, protein levels (Western blot), compared with cells without treatment (collagen [3]): more stimulated | KGF synthesis (RT-PCR), deletion fragments, compared with C-terminal fragment SEQ ID NO: 15 (KGF [2]): more stimulated

SEQ ID NO: 14: N-terminal deletion fragment of AIMP1, amino acids 1-53 (MANNDAVLKRLEQKGAEADQIIEYLKQQVSLLKEKAILQATLREEKKLRVENA; PEPTIDE (1)..(53) AIMP1-(1-53); listed as Homo sapiens)
collagen synthesis (RT-PCR), deletion fragments, compared with C-terminal fragment SEQ ID NO: 15 (collagen [1]): more stimulated | KGF synthesis (RT-PCR), deletion fragments, compared with C-terminal fragment SEQ ID NO: 15 (KGF [2]): more stimulated

B1: SEQ ID NO: 27: fragment consisting of amino acids 1-192 of the AIMP1 (protein, listed as Homo sapiens)
chain: MANNDAVLKRLEQKGAEADQIIEYLKQQVSLLKEKAILQATLREEKKLRVENAKLKKEIEELKQELIQAEIQNGVKQIAFPSGTPLHANSMVSENVIQSTAVTTVSSGTKEQIKGGTGDEKKAKEKIEKKGEKKEKKQQSIAGSADSKPIDVSRLDLRIGCIITARKHPDADSLYVEEVDVGEIAPRTVVSG
modifications: PEPTIDE (1)..(192) AIMP1-(1-192)
notes: fragment consisting of amino acids 1-192 of the AIMP1
activity to stimulate collagen synthesis (collagen [4]): have the activity to stimulate collagen synthesis | activity to stimulate KGF expression (KGF [5]): have the activity to stimulate collagen synthesis and KGF expression

B2: SEQ ID NO: 2: N-terminal fragment of AIMP1, amino acids 1-147 (protein, listed as Homo sapiens)
chain: MANNDAVLKRLEQKGAEADQIIEYLKQQVSLLKEKAILQATLREEKKLRVENAKLKKEIEELKQELIQAEIQNGVKQIAFPSGTPLHANSMVSENVIQSTAVTTVSSGTKEQIKGGTGDEKKAKEKIEKKGEKKEKKQQSIAGSADS
modifications: PEPTIDE (1)..(147) AIMP1-(1-147)
synthesis of collagen (RT-PCR), AIMP1 fragments (collagen [1]): stimulated | synthesis of collagen, protein levels (Western blot), compared with cells without treatment (collagen [3]): more stimulated | synthesis of KGF (RT-PCR), AIMP1 fragments (KGF [2]): stimulated

B3: C-terminal fragment: C-terminal fragment of AIMP1, amino acids 148-312 (protein, listed as Homo sapiens)
chain: KPIDVSRLDLRIGCIITARKHPDADSLYVEEVDVGEIAPRTVVSGLVNHVPLEQMQNRMVILLCNLKPAKMRGVLSQAMVMCASSPEKIEILAPPNGSVPGDRITFDAFPGEPDKELNPKKKIWEQIQPDLHTNDECVATYKGVPFEVKGKGVCRAQTMSNSGIK
modifications: PEPTIDE (1)..(165) AIMP1-(148-312)
synthesis of collagen (RT-PCR), AIMP1 fragments (collagen [1]): no significant effect | synthesis of KGF (RT-PCR), AIMP1 fragments (KGF [2]): no significant effect

B4: SEQ ID NO: 28: fragment consisting of amino acids 6-192 of the AIMP1 (protein, listed as Homo sapiens)
chain: AVLKRLEQKGAEADQIIEYLKQQVSLLKEKAILQATLREEKKLRVENAKLKKEIEELKQELIQAEIQNGVKQIAFPSGTPLHANSMVSENVIQSTAVTTVSSGTKEQIKGGTGDEKKAKEKIEKKGEKKEKKQQSIAGSADSKPIDVSRLDLRIGCIITARKHPDADSLYVEEVDVGEIAPRTVVSG
modifications: PEPTIDE (1)..(187) AIMP1-(6-192)
notes: fragment consisting of amino acids 6-192 of the AIMP1
activity to stimulate collagen synthesis (collagen [4]): have the activity to stimulate collagen synthesis | activity to stimulate KGF expression (KGF [5]): have the activity to stimulate collagen synthesis and KGF expression
